The source of these data is the supplement of paper PMC11246515.

± gives the standard deviation of the averaged measurements.

A short description of the data set: total protein half-life in vivo (active degradation + dilution); higher = more stable protein.
The mark [1] stands for this setting: E. coli NCM3722 delta-clpP delta-lon delta-hslV, growth: N-lim chemostat, doubling time 6 h.
The mark [2] stands for this setting: E. coli NCM3722 delta-clpP, growth: N-lim chemostat, doubling time 6 h.
The mark [3] stands for this setting: E. coli NCM3722 delta-hslV, growth: N-lim chemostat, doubling time 6 h.
[4] abbreviates: E. coli NCM3722 delta-lon, growth: N-lim chemostat, doubling time 6 h.
The mark [5] stands for this setting: E. coli NCM3722 delta-smpB, growth: N-lim chemostat, doubling time 6 h.
Setting [6] is: wild type E. coli NCM3722, growth: C-lim chemostat, doubling time 3 h.
Where [7] appears, read: wild type E. coli NCM3722, growth: C-lim chemostat, doubling time 6 h.
The mark [8] stands for this setting: wild type E. coli NCM3722, growth: C-lim chemostat, doubling time 12 h.
[9] abbreviates: wild type E. coli NCM3722, growth: N-lim chemostat, doubling time 6 h.
Setting [10] is: wild type E. coli NCM3722, growth: N-lim chemostat, doubling time 12 h.
Where [11] appears, read: wild type E. coli NCM3722, growth: P-lim chemostat, doubling time 6 h.
Where [12] appears, read: wild type E. coli NCM3722, growth: P-lim chemostat, doubling time 12 h.

For “MSNNIRIEEDLLGTREVPADAYYGVHTLRAIENFYISNNKISDIPEFVRGMVMVKKAAAMANKELQTIPKSVANAIIAACDEVLNNGKCMDQFPVDVYQGGAGTSVNMNTNEVLANIGLELMGHQKGEYQYLNPNDHVNKCQSTNDAYPTGFRIAVYSSLIKLVDAINQLREGFERKAVEFQDILKMGRTQLQDAVPMTLGQEFRAFSILLKEEVKNIQRTAELLLEVNLGATAIGTGLNTPKEYSPLAVKKLAEVTGFPCVPAEDLIEATSDCGAYVMVHGALKRLAVKMSKICNDLRLLSSGPRAGLNEINLPELQAGSSIMPAKVNPVVPEVVNQVCFKVIGNDTTVTMAAEAGQLQLNVMEPVIGQAMFESVHILTNACYNLLEKCINGITANKEVCEGYVYNSIGIVTYLNPFIGHHNGDIVGKICAETGKSVREVVLERGLLTEAELDDIFSVQNLMHPAYKAKRYTDESEQ [P0AC38]”, the “total protein half-life in vivo” value was 5.54 ± 0.31 h under setting [1]; 5.5 ± 1.1 h under setting [2]; 1.13 ± 0.052 h under setting [3]; 1.68 ± 0.16 h under setting [4]; 1.68 ± 0.45 h under setting [5]; 2.42 ± 0.11 h under setting [6]. The “total protein half-life in vivo” value by setting is: under setting [7], 4.284 ± 0.012 h; under setting [8], 6.58 ± 0.62 h; under setting [9], 3.1 ± 0.18 h; under setting [10], 2.93 ± 0.087 h; under setting [11], 4.79 ± 0.14 h; under setting [12], 9.237 ± 0.036 h.
Regarding “MPTSHENALQQRCQQIVTSPVLSPEQKRHFLALEAENNLPYPQLPAEARRALDEGVICDMFEGHAPYKPRYVLPDYARFLANGSEWLELEGAKDLDDALSLLTILYHHVPSVTSMPVYLGQLDALLQPYVRILTQDEIDVRIKRFWRYLDRTLPDAFMHANIGPSDSPITRAILRADAELKQVSPNLTFIYDPEITPDDLLLEVAKNICECSKPHIANGPVHDKIFTKGGYGIVSCYNSLPLAGGGSTLVRLNLKAIAERSESLDDFFTRTLPHYCQQQIAIIDARCEFLYQQSHFFENSFLVKEGLINPERFVPMFGMYGLAEAVNLLCEKEGIAARYGKEAAANEVGYRISAQLAEFVANTPVKYGWQKRAMLHAQSGISSDIGTTPGARLPYGDEPDPITHLQTVAPHHAYYYSGISDILTLDETIKRNPQALVQLCLGAFKAGMREFTANVSGNDLVRVTGYMVRLSDLEKYRAEGSRTNTTWLGEEAARNTRILERQPRVISHEQQMRFSQ”, the “total protein half-life in vivo” value reads like this: under setting [1], 4.57 h; under setting [4], 3.47 h; under setting [6], 2.7 h; under setting [7], 3.94 h; under setting [8], 6.17 h; under setting [11], 3.51 h. Under setting [12], the “total protein half-life in vivo” value is 5.66 h.
Turning to “MAHRPRWTLSQVTELFEKPLLDLLFEAQQVHRQHFDPRQVQVSTLLSIKTGACPEDCKYCPQSSRYKTGLEAERLMEVEQVLESARKAKAAGSTRFCMGAAWKNPHERDMPYLEQMVQGVKAMGLEACMTLGTLSESQAQRLANAGLDYYNHNLDTSPEFYGNIITTRTYQERLDTLEKVRDAGIKVCSGGIVGLGETVKDRAGLLLQLANLPTPPESVPINMLVKVKGTPLADNDDVDAFDFIRTIAVARIMMPTSYVRLSAGREQMNEQTQAMCFMAGANSIFYGCKLLTTPNPEEDKDLQLFRKLGLNPQQTAVLAGDNEQQQRLEQALMTPDTDEYYNAAAL”, the “total protein half-life in vivo” value by setting is: under setting [1], 3.43 ± 0.23 h; under setting [2], 2.236 ± 0.018 h; under setting [3], 0.669 h; under setting [4], 0.723 ± 0.084 h; under setting [5], 0.799 ± 0.048 h; under setting [6], 0.8031 ± 0.0044 h. Moreover, the “total protein half-life in vivo” value under setting [7] worked out at 1.3 ± 0.08 h; the “total protein half-life in vivo” value under setting [8] turned out to be 1.44 ± 0.52 h; the “total protein half-life in vivo” value under setting [9] is 0.897 ± 0.17 h; the “total protein half-life in vivo” value under setting [10] came to 1.09 ± 0.08 h; the “total protein half-life in vivo” value under setting [11] amounted to 1.44 ± 0.36 h; the “total protein half-life in vivo” value under setting [12] was determined as 2.68 ± 0.76 h.
Turning to “MKLTTHHLRTGAALLLAGILLAGCDQSSSDAKHIKVGVINGAEQDVAEVAKKVAKEKYGLDVELVGFSGSLLPNDATNHGELDANVFQHRPFLEQDNQAHGYKLVAVGNTFVFPMAGYSKKIKTVAQIKEGATVAIPNDPTNLGRALLLLQKEKLITLKEGKGLLPTALDITDNPRHLQIMELEGAQLPRVLDDPKVDVAIISTTYIQQTGLSPVHDSVFIEDKNSPYVNILVAREDNKNAENVKEFLQSYQSPEVAKAAETIFNGGAVPGW”, the “total protein half-life in vivo” value is, setting by setting: under setting [1], 5.58 ± 0.19 h; under setting [2], 6.82 ± 1.4 h; under setting [4], 6.47 ± 0.86 h; under setting [5], 6.67 ± 0.91 h; under setting [6], 2.86 ± 0.047 h; under setting [7], 5.49 ± 0.059 h. Further, the “total protein half-life in vivo” value runs as follows: under setting [8], 10.7 ± 1.3 h; under setting [9], 5.44 ± 0.46 h; under setting [10], 12.6 ± 2.8 h; under setting [11], 5.38 ± 0.23 h; under setting [12], 10.6 ± 0.015 h.
For the sequence “MPDSRKARRIADPGLQPERTSLAWFRTMLGYGALMALAIKHNWHQAGMLFWISIGILAIVALILWHYTRNRNLMDVTNSDFSQFHVVRDKFLISLAVLSLAILFAVTHIHQLIVFIERVA [P0ADL6]”, the “total protein half-life in vivo” value under setting [10] stood at 8.68 h.
With “MKTAYIAKQRQISFVKSHFSRQLEERLGLIEVQAPILSRVGDGTQDNLSGCEKAVQVKVKALPDAQFEVVHSLAKWKRQTLGQHDFSAGEGLYTHMKALRPDEDRLSPLHSVYVDQWDWERVMGDGERQFSTLKSTVEAIWAGIKATEAAVSEEFGLAPFLPDQIHFVHSQELLSRYPDLDAKGRERAIAKDLGAVFLVGIGGKLSDGHRHDVRAPDYDDWSTPSELGHAGLNGDILVWNPVLEDAFELSSMGIRVDADTLKHQLALTGDEDRLELEWHQALLRGEMPQTIGGGIGQSRLTMLLLQLPHIGQVQCGVWPAAVRESVPSLL”, the “total protein half-life in vivo” value under setting [1] was 2.59 ± 0.04 h; the “total protein half-life in vivo” value under setting [2] was 4.18 ± 2.2 h; the “total protein half-life in vivo” value under setting [3] amounted to 3.06 ± 0.71 h; the “total protein half-life in vivo” value under setting [5] amounted to 2.771 ± 0.0098 h; the “total protein half-life in vivo” value under setting [6] is 2.53 ± 0.085 h; the “total protein half-life in vivo” value under setting [7] worked out at 2.9 ± 0.16 h. The “total protein half-life in vivo” value reads like this: under setting [8], 5.26 ± 0.4 h; under setting [9], 2.29 ± 0.19 h; under setting [10], 4.02 ± 1 h; under setting [11], 2.37 ± 0.58 h; under setting [12], 5.24 ± 1.9 h.
Turning to “MALPILLDCDPGHDDAIAIVLALASPELDVKAITSSAGNQTPEKTLRNVLRMLTLLNRTDIPVAGGAVKPLMRELIIADNVHGESGLDGPALPEPTFAPQNCTAVELMAKTLRESAEPVTIVSTGPQTNVALLLNSHPELHSKIARIVIMGGAMGLGNWTPAAEFNIYVDPEAAEIVFQSGIPVVMAGLDVTHKAQIHVEDTERFRAIGNPVSTIVAELLDFFLEYHKDEKWGFVGAPLHDPCTIAWLLKPELFTSVERWVGVETQGKYTQGMTVVDYYYLTGNKPNATVMVDVDRQGFVDLLADRLKFYA”, the “total protein half-life in vivo” value runs as follows: under setting [1], 4.982 ± 0.041 h; under setting [2], 4.24 ± 0.14 h; under setting [3], 4.66 ± 1 h; under setting [4], 4.291 ± 0.039 h; under setting [5], 4.236 ± 0.027 h; under setting [6], 3.02 ± 0.045 h. Besides, the “total protein half-life in vivo” value under setting [7] stood at 5.85 ± 0.58 h; the “total protein half-life in vivo” value under setting [8] is 10.5 ± 0.72 h; the “total protein half-life in vivo” value under setting [9] amounted to 4.76 ± 0.19 h; the “total protein half-life in vivo” value under setting [10] stood at 7.25 ± 0.29 h; the “total protein half-life in vivo” value under setting [11] is 5.5168 ± 0.0052 h; the “total protein half-life in vivo” value under setting [12] was determined as 11.3 ± 0.33 h.
